# Data from patent US20020068361A1, “METHODS OF EVALUATING SPECIFIC CELLULAR FUNCTIONS OF RECEPTOR PROTEIN TYROSINE KINASES IN A LIGAND INDEPENDENT MANNER” (priority 1997, published 2002).
# Key:
# chick TRKA receptor = molecular target: T1, chick TRKA receptor (Gallus gallus, UniProt Q91009); assay: Antibody/ligand recognition of chick TRKA receptor; type: binding, chicken; conditions: immunoblot or immunoprecipitation; receptor activation
# T1 construct: expressed in transfected cells
# From the text: (§1) The antibody preparation used in the experiments, called CTA, was a rabbit antibody raised against the entire extracellular domain of chicken TRKA expressed in COS cells. […] A useful control for these experiments was to activate the endogenous rat TRKA receptor without influencing the introduced chimeric receptor.
# (§2) While the chick receptor became phosphorylated by both treatments, activation of the rat receptor was detected only after NGF addition. […] The effects of the CTA antibody preparation were therefore not attributable to activation of endogenous TRKA receptors.
# rat TRKA receptor = molecular target: T2, rat TRKA receptor (Rattus norvegicus, UniProt P35739); assay: Antibody/ligand recognition of rat TRKA receptor; type: binding
# T2 construct: endogenous in cells
# From the text: as §1, §2
# T1 sequence (Q91009 15-778): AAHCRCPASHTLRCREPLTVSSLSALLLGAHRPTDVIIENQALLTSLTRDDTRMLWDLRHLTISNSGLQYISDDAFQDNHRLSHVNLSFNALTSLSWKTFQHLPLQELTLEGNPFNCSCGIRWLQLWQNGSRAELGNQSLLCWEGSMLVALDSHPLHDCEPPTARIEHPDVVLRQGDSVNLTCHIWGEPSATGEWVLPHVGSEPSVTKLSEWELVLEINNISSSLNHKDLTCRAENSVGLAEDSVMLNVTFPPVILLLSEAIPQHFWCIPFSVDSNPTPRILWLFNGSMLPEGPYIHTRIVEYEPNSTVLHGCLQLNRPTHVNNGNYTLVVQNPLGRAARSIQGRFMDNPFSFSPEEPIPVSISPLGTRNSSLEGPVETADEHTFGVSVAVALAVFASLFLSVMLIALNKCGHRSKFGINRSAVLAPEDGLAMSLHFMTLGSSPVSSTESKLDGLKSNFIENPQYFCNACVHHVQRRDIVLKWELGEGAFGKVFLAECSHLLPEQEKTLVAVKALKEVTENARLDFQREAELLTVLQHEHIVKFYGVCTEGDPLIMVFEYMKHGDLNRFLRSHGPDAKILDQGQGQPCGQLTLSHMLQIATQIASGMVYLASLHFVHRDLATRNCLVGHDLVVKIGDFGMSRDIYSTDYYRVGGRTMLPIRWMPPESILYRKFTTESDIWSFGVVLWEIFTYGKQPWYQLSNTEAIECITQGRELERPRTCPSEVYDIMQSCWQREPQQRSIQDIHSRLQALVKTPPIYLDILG
# T2 sequence (P35739 33-799): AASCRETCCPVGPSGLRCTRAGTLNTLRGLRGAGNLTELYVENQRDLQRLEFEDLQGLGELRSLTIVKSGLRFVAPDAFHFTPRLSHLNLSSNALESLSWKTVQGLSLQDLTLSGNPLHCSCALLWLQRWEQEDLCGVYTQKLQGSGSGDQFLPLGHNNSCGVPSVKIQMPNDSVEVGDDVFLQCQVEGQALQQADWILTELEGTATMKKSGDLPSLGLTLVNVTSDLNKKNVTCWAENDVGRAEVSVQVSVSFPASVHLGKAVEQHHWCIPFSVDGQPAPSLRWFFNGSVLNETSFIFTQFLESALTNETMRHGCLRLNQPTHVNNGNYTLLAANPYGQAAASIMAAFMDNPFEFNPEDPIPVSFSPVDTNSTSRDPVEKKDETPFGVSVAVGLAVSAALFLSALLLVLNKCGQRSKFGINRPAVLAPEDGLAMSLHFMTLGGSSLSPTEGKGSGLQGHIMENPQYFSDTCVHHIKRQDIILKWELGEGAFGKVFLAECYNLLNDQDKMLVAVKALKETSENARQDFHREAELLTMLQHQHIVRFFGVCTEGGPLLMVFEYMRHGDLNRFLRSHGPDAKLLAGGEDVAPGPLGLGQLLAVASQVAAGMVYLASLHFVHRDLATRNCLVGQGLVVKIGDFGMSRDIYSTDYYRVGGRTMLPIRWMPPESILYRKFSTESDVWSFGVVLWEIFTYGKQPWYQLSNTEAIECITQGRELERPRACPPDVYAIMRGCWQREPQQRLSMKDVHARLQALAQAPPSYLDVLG
substance,measurement,setting,value
"NGF: nerve growth factor, ligand which binds to the extracellular region of the TRK receptor",recognition of chick TRKA receptor,chick TRKA receptor,binds both receptors
same,recognition of rat TRKA receptor,rat TRKA receptor,binds both receptors
